We go through one substance from paper PMC3902126.

Assay [1] deals with Brucella abortus RicA (Rab2 interacting conserved protein A), His6-RicA (1-175) (Brucella abortus). As to the kind of experiment: ITC.
Assay [2] has the same target. As to the kind of experiment: ITC. This is another data set of the same source. On the technique in general: Isothermal titration calorimetry measures the heat released or taken up as one component is titrated into another.

Like-named read-outs stand apart in the source and are kept apart here.

Take “Homo sapiens Rab2 (1-212) (from UniProt P61019 1-212) (natural protein)”: the Kd (in general, the equilibrium constant for the complex coming apart) turned out to be 40 µM in assay [1] and 36 µM in assay [2].
